For two molecules, Inhibitory effect (%), binding result and O.D. 450 results are on record in patent publication EP3088890B1 (Chugai Seiyaku Kabushiki Kaisha, dated 2020).

The target in assay [1] is GPC3 core (sGPC3-His) protein (human) (UniProt P51654). Kind of assay: competition ELISA on plate-bound sGPC3; unlabeled GT114 (100-fold) against competitor biotin-labeled GT114.
Assay [2] shares this target. Kind of assay: competition ELISA on plate-bound sGPC3; unlabeled GT165 (100-fold) against competitor biotin-labeled GT30.
Assay [3] concerns the target T1, AW5, C-terminally His-tagged recombinant product of positions 1 to 357 of GPC3 (human, UniProt P51654 25-357).
T1 construct: Expressed in CHO cells, cell pellets used in Western blot; The range is as printed and starts at position 1; also called AW5 (1-357); not shown: C-terminal His tag
Kind of assay: Western blot, pellets of CHO cells expressing the product.

For assay [4], the target named is GPC3 core (sGPC3-His) protein (human) (UniProt P51654). Kind of assay: competition ELISA on plate-bound sGPC3; unlabeled GT165 (100-fold) against competitor biotin-labeled GT165.
For assay [5] the target is unchanged. Kind of assay: competition ELISA on plate-bound sGPC3; unlabeled GT165 (100-fold) against competitor biotin-labeled GT165; signal of the labeled antibody.

GPC3 core (sGPC3-His) protein (human), sequence (P51654 25-563 S495A/S509A): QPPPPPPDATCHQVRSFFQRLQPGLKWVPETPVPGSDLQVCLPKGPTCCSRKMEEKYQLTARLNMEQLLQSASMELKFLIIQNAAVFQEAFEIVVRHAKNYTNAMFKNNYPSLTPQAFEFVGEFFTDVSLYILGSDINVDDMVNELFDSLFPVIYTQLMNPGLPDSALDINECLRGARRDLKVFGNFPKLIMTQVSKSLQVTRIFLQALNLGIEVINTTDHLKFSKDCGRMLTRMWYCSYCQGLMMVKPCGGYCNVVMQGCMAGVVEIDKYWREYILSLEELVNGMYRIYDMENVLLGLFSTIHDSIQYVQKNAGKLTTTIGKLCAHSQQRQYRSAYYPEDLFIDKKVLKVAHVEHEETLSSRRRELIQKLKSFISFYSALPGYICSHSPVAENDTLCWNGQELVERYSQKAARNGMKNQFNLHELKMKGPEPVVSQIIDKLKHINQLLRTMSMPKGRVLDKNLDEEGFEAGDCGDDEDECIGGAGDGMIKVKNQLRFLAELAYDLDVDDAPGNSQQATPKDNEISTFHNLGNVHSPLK
T1 sequence (P51654 25-357): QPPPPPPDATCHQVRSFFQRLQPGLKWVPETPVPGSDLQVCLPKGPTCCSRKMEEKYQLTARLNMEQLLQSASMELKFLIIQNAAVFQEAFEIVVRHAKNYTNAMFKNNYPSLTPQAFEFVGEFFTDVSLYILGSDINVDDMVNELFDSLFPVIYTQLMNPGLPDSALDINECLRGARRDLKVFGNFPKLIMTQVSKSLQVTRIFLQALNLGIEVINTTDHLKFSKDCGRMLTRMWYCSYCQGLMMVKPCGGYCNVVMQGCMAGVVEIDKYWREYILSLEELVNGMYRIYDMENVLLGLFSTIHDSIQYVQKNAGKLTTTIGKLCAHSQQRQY

B1: GT114 antibody (antibody, IgG1, V domains shown)
VH: DVQLQESGPGLVKPSQSLSLTCTVTGYSITSDSAWNWIRQFPGNKLEWMAYIMYSGITSYNPSLKSRISITRDTAKNQFFLQLNSVTTEDSATYYCSRGYWYFDVWGAGTTVTVSS
VL: QIVLTQSPAIMSASLGEEITLTCSASSSVSYMHWYQQKSGTSPKLLIYSTSILASGVPSRFSGSGSGTFYSLTISSVEAEDAADYYCLQWITYRTFGGGTKLEIKR
Consider B1, for which the Inhibitory effect (%) in assay [1] turned out to be 89%.

B2: GT165 antibody (antibody, IgG1, V domains shown)
VH: QVQLQQSGAELVGPGASVKISCKAFGYTFTNHHINWVKQRPGQGLDWIGYINPYNDYTNYNQKFKGKATLTVDKSSSTAYMELSSLTSEDSAVYYCARSDPAWFAYWGQGTLVTVSA
VL: DIQMTQSPSSLSASLGGKVTITCKASQDINKNIAWYQHKPGKGPRLLIWYTYTLQPGIPSRFSGSGSGRDYSFSISNLEPEDIATYYCLQYDNLPFTFGTGTKLEIKR
Consider B2, for which the Inhibitory effect (%) is 54% in assay [2] and 93% in assay [4]. Moreover, the binding result in assay [3] is on record as “no binding”. The same molecule came in with an O.D. 450 in assay [5] of 0.111 O.D. 450.
